In the assay the target is recombinant MHJ_0125 (polyhistidine fusion of the M42 glutamyl aminopeptidase MHJ_0125 of Mycoplasma hyopneumoniae) (Mycoplasma hyopneumoniae (strain J)). As to the kind of experiment: SEC; 10 µg purified rMHJ_0125 on Superdex 200 (3.2 x 300 mm), 20 mM Tris-HCl pH 8.0, 50 µl/min; markers blue dextran, apoferritin, myoglobin.

Regarding “recombinant MHJ_0125 (polyhistidine fusion of the M42 glutamyl aminopeptidase MHJ_0125 of Mycoplasma hyopneumoniae) (enzyme)”, the stoichiometry N is 12.

The values above are taken from PMC3718333.
